# What was measured:
# [1] = aqueous solution administered into vitreous from animals and people; cited from earlier work
# [2] = In vitro gel formation in mock vitreous and homogenization; assay type: physicochemical
# Description: In alternative embodiments, microparticles can be prepared and fragmented. For example, a vitreous-like solution (“mock vitreous”) was prepared with sodium hyaluronate and used for in vitro pre-fragmented gel formation experiments. The AXT107 peptide solution is added to the mock vitreous, upon which the peptide forms a gel.
sequence,measurement,setting,value
LRRFSTAPFAFIDINDVINF [AXT107],gel formation in vitreous,[1],precipitate to form a gel-like substance
same,product of homogenization of gel,[2]; gels homogenized after formation in mock vitreous,suspended microparticles comparable to those formed in excipient formulation with mixing
same,gel formation in mock vitreous,[2]; mock vitreous with sodium hyaluronate,forms a gel

# From patent US20260325600A1, “FORMULATIONS FOR INTRAOCULAR DELIVERY OF PEPTIDES DERIVED FROM TYPE IV COLLAGEN” (ASCLEPIX THERAPEUTICS, INC., priority 2022, published 2026)
